{"source": "patent US20260176342A1", "about": "(CITRYLL B V, published 2026)", "binders": {"B1": {"name": "hMQ22.101j/e (antibody, V domains shown)", "VH": "QVQLVQSGAEVKKPGASVKVSCKASGYTFTNYGMHWVRQAPGQGLEWMGWINTYSGEATYAQKFQGRVTMTRDTSISTAYMELSRLRSDDTAVYYCLRGYTYQSFDEGGDYWGQGTLVTVSS", "VL": "DVVMTQSPLSLPVTLGQPASISCRSSQSLVDSDGKTYLNWFQQRPGQSPRRLIYLVSKLDSGVPDRFSGSGSGTDFTLKISRVEAEDVGVYYCWQGTHFPYTFGQGTKLEIK", "notes": "Full-size antibody with full-length human heavy and light chains; also called humanized therapeutic antibody with heavy chain hVH22.101j and light chain hVL22.101e; tACPA"}}, "key": {"[1]": {"target": "T1, citrullinated histone 2A-derived peptide (SEQ ID NO: 18), C-terminal biotin (human)", "T1 construct": "Captured by its biotin on NeutrAvidin plates (ELISA) or streptavidin biosensors (Octet); also called histone-derived peptide; citrullinated H2A-derived peptide", "T1 peptide": "SG[Cit]GKQGGKARA-biotin", "experiment": "CMC ELISA, biotinylated peptide on NeutrAvidin-coated plate, anti-human-HRP, OD 450 nm, interpolated on a calibration curve", "protocol": "hMQ22.101j/e samples from week 0, 2, 4, 6 and 8, and hMQ22.101f/g samples from week 0, 3 and 6 were subjected to an in house-validated CMC ELISA. 96-well ELISA plates were coated with NeutrAvidin™ ([…]) by overnight incubation at 4° C. Wells were washed 5 times with PBS-Tween® (polysorbate) 20 (PBS-T) and blocked by a 2 hour incubation with PBS-T+1% Bovine serum albumin (BSA) at room temperature (RT). After 5 more washes with PBS-T, wells were incubated for 1 hour at RT with a histone-derived peptide (SEQ ID NO 18: SGXGKQGGKARA), containing a citrulline (X) at position 3 and a C-terminal biotin (40 ng/well) in PBS-T+0.2% BSA. After another 5 washes with PBS-T, a calibration curve made from a reference lot of hMQ22.101j/e or hMQ22.101f/g by adding to the wells starting at […] and further diluted at a 1:1 ratio until reaching a concentration of 0.66 ng/ml in PBS-T+0.2% BSA. […]\nFinally, accelerated stability samples that had been incubated for 0, 2, 3, 4, 6 and 8 weeks at 37° C. were added to the same plate at a concentration of 40 ng/ml in PBS-T+0.2% BSA and incubated for 2 hours at RT. […] Wells were incubated 10 min with TMB substrate before stopping the reaction with 2 M H₂SO₄ after which the optical density was measured at wavelength of 450 nm. […]"}, "[2]": {"target": "T2, citrullinated histone 4-derived peptide (SEQ ID NO: 20), C-terminal biotin (human, citrulline at position 3; biotin at the C-terminus)", "T2 construct": "Immobilized on streptavidin biosensors (Octet RED96); also called H4-derived peptide; N-terminal histone 4 peptide", "T2 peptide": "SGXGKGGKGLGK", "experiment": "Octet RED96 off-rate screen, biotinylated peptide on streptavidin biosensors, antibody 72 nM, 30 C", "protocol": "Off-rate screening of the isomerization-mutated antibodies was performed on an Octet® RED96 (biomolecule detection system) instrument (Pall ForteBio). All measurements were performed at 30° C. Streptavidin (SA) biosensors were first washed for 50 sec with PBS. 1 μg/ml N-terminal histone 2A (SEQ ID NO: 18) and histone 4 (SEQ ID NO: 20) peptides, containing both a citrulline at position 3 and a biotin at the C-terminus, were immobilized on SA biosensors for 200 sec, washed with PBS for 50 sec and excess reactive streptavidin molecules blocked with EZ-Link™ biocytin for 200 sec. After two additional 50 sec wash steps in PBS, antibodies at a concentration of 72 nM diluted in PBS were allowed to bind to the biosensors for 200 sec. Sensors were subsequently placed in PBS for 4000 sec in order to measure their dissociation rates.\nBackground signals generated with non-coated biosensors, which have been exposed to the various antibodies as well as signals from coated biosensors that have not been exposed to the various antibodies, have been subtracted before dissociation curves for each antibody were plotted. Both histone 2A and histone 4 dissociation rates constants (kdis×E-07 (1/s)) for each antibody were calculated applying a 1:1 interaction model (fitting local, full) using ForteBio data analysis software 8.1."}}, "note": "Square brackets hold non-standard residues; d marks the D form. Ends that are not written are not given here. Cit = NC(=O)NCCC[C@H](N)C(=O)O", "data": [{"binder": "B1", "values": [{"measurement": "binding result", "setting": "[1]", "result": "binds"}, {"measurement": "binding result", "setting": "[2]", "result": "binds"}]}]}
